Reference: article PMC12499391

Experiments:
Experiment in all cases: ELISA; dose-response of S protein binding to ACE2 and C-type lectins; which partner was coated and how binding was detected is not given for this experiment
[1] = biological target: Recombinant human CLEC10A (human) (UniProt Q8IUN9)
[2] = biological target: Recombinant human L‐SIGN (human) (UniProt Q9H2X3)
[3] = biological target: Recombinant human CLEC2 (human) (UniProt Q9P126)
[4] = biological target: Recombinant human DC‐SIGN (human) (UniProt Q9NNX6)
Chain of UniProt Q9NNX6 (Q9NNX6 whole entry): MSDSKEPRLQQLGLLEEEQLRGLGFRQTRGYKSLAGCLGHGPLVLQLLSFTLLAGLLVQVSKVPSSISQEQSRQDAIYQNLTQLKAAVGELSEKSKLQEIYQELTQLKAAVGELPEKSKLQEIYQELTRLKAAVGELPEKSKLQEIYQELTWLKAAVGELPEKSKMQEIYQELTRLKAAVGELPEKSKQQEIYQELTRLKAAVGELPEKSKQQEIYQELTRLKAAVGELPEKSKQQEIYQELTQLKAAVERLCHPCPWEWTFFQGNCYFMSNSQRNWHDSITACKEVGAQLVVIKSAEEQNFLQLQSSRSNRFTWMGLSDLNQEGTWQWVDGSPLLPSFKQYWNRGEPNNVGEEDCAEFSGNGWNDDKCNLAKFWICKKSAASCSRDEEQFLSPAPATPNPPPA

[5] = biological target: Recombinant human CLEC5A (human) (UniProt Q9NY25)
Chain of UniProt Q9NY25 (Q9NY25 whole entry): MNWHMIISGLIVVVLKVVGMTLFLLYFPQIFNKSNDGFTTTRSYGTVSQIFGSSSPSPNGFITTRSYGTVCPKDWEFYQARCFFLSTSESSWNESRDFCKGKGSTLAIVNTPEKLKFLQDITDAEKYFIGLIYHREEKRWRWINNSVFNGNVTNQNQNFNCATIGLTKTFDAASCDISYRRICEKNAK

Chain of UniProt Q9P126 (Q9P126 whole entry): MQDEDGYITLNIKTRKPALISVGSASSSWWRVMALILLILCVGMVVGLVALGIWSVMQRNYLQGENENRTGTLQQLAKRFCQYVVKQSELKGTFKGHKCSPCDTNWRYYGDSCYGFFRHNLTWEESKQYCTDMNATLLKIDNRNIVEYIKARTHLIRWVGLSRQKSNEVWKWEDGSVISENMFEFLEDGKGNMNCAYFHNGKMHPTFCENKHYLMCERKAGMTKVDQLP
Chain of UniProt Q9H2X3 (Q9H2X3 whole entry): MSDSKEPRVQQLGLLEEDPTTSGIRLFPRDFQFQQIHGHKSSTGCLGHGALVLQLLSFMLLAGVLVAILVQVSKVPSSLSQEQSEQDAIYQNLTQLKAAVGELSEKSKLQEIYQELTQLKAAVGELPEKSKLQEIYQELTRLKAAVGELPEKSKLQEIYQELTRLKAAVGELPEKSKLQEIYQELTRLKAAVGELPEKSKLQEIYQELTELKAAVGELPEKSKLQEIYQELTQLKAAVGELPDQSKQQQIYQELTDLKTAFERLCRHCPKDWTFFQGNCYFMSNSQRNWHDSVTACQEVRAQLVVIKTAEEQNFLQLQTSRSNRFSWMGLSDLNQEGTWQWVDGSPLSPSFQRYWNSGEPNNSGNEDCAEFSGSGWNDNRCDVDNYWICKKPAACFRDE
Chain of UniProt Q8IUN9 (Q8IUN9 whole entry): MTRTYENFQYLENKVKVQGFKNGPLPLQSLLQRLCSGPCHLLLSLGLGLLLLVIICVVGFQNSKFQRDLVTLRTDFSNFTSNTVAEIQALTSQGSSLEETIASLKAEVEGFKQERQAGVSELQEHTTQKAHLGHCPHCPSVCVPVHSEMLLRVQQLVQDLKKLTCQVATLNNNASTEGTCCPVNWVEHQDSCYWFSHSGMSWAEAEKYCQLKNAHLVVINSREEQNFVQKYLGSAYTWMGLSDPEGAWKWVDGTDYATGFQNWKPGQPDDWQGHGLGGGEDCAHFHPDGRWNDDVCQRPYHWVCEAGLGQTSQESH

For “SARS‐CoV‐2 spike (S) protein (from UniProt P0DTC2 14-1213) (natural protein)”, the EC50 [1] was 9.75 nM, the EC50 [2] was 5.15 nM and the EC50 [3] was 7.69 nM. For the same substance, the EC50 [4] was 4.59 nM and the EC50 [5] was 6.41 nM.
